Laboratory results: patent US20230062800A1 (DENALI THERAPEUTICS, published 2023)

Target: T1, human apical domain TfR (human, UniProt P02786 198-378)
T1 construct: The SPR analyte is printed only as "human apical domain TfR"; also called human TfR; human transferrin receptor 1 apical domain
Assay: Biacore SPR as in Example 2; steady-state fit
Experimental: To determine whether SGSH-Fc fusion proteins with engineered TfR binding affects the ability of the modified Fc domain to interact with human TfR, the affinity of ETV: SGSH Bizyme Structure 1 (Example 1) for human TfR was assessed using a Biacore™ surface plasmon resonance assay. Biacore™ Series S CM5 sensor chips were immobilized with anti-human Fab (human Fab capture kit from GE Healthcare). 5 μg/mL of the SGSH-Fc fusion proteins were captured for 1 minute on each flow cell and serial 3-fold dilutions of human apical domain TfR were injected at a flow rate of 30 μL/min. Each sample was analyzed with a 3-minute association and a 3-minute dissociation. After each injection, the chip was regenerated using 10 mM glycine-HCl (pH 2.1). Binding response was corrected by subtracting the RU from a flow cell capturing an irrelevant IgG at similar density. Steady-state affinities were obtained by fitting the response at equilibrium against the concentration using Biacore™ T200 Evaluation Software v3.1. Biacore™ analysis established that SGSH-Fc fusion proteins with a TfR-binding site engineered into the Fc region bind to human TfR.

T1 sequence (P02786 198-378 limits assumed): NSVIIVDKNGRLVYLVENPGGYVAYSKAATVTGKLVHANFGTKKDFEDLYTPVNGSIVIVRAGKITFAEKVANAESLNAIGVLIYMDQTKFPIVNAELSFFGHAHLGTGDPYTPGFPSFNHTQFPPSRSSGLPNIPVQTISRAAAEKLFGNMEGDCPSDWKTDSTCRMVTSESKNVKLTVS

Kd: 340 nM
B1: ETV:SGSH Bizyme Structure 4 (Fc fusion)
chain 1: RPRNALLLLADDGGFESGAYNNSAIATPHLDALARRSLLFRNAFTSVSSCSPSRASLLTGLPQHQNGMYGLHQDVHHFNSFDKVRSLPLLLSQAGVRTGIIGKKHVGPETVYPFDFAYTEENGSVLQVGRNITRIKLLVRKFLQTQDDRPFFLYVAFHDPHRCGHSQPQYGTFCEKFGNGESGMGRIPDWTPQAYDPLDVLVPYFVPNTPAARADLAAQYTTVGRMDQGVGLVLQELRDAGVLNDTLVIFTSDNGIPFPSGRTNLYWPGTAEPLLVSSPEHPKRWGQVSEAYVSLLDLTPTILDWFSIPYPSYAIFGSKTIHLTGRSLLPALEAEPLWATVFGSQSHHEVTMSYPMRSVQHRHFRLVHNLNFKMPFPIDQDFYVSPTFQDLLNRTTAGQPTGWYKDLRHYYYRARWELYDRSRDPHETQNLATDPRFAQLLEMLRDQLAKWQWETHDPWVCAPDGVLEEKLSPQCQPLHNELGGGGSDKTHTCPPCPAPEAAGGPSVFLFPPKPKDTLMISRTPEVTCVVVDVSHEDPEVKFNWYVDGVEVHNAKTKPREEQYNSTYRVVSVLTVLHQDWLNGKEYKCKVSNKALSAPIEKTISKAKGQPREPQVYTLPPSRDELTKNQVSLSCAVKGFYPSDIAVEWESNGQPENNYKTTPPVLDSDGSFFLVSKLTVDKSRWQQGNVFSCSVMHEALHNHYTQKSLSLSPGK
chain 2: RPRNALLLLADDGGFESGAYNNSAIATPHLDALARRSLLFRNAFTSVSSCSPSRASLLTGLPQHQNGMYGLHQDVHHFNSFDKVRSLPLLLSQAGVRTGIIGKKHVGPETVYPFDFAYTEENGSVLQVGRNITRIKLLVRKFLQTQDDRPFFLYVAFHDPHRCGHSQPQYGTFCEKFGNGESGMGRIPDWTPQAYDPLDVLVPYFVPNTPAARADLAAQYTTVGRMDQGVGLVLQELRDAGVLNDTLVIFTSDNGIPFPSGRTNLYWPGTAEPLLVSSPEHPKRWGQVSEAYVSLLDLTPTILDWFSIPYPSYAIFGSKTIHLTGRSLLPALEAEPLWATVFGSQSHHEVTMSYPMRSVQHRHFRLVHNLNFKMPFPIDQDFYVSPTFQDLLNRTTAGQPTGWYKDLRHYYYRARWELYDRSRDPHETQNLATDPRFAQLLEMLRDQLAKWQWETHDPWVCAPDGVLEEKLSPQCQPLHNELGGGGSDKTHTCPPCPAPEAAGGPSVFLFPPKPKDTLMISRTPEVTCVVVDVSHEDPEVKFNWYVDGVEVHNAKTKPREEQYNSTYRVVSVLTVLHQDWLNGKEYKCKVSNKALSAPIEKTISKAKGQPREPQVYTLPPSRDELTKNQVSLWCLVKGFYPSDIAVEWESYGTEWANYKTTPPVLDSDGSFFLYSKLTVTKEEWQQGFVFSCSVMHEALHNHYTQKSLSLSPGK
modifications: SGSH cysteine at position 70 (full-length SGSH numbering) largely converted to formylglycine (fGly 99% in Table 2); the fGly form is SEQ ID NO:95; SGSH cysteine at position 70 (full-length SGSH numbering) largely converted to formylglycine (fGly 99% in Table 2); the fGly form is SEQ ID NO:67
notes: Heterodimer; The preparation may be a mixture; also called fourth "N-terminal bizyme" SGSH-Fc fusion protein; P329S variant of Bizyme Structure 1
